Test results taken from PMC10955559.

Columns and labels:
Assay in all cases: purified protein
Details in all cases: 100 mM sodium acetate, pH 5.5, 37 °C, 30 min, no added calcium
purified protein [1] = substrate: OC[C@H]1O[C@@](CO)(O[C@H]2O[C@H](CO)[C@@H](O)[C@H](O)[C@H]2O)[C@@H](O)[C@@H]1O; type: biochemical, Aedes aegypti
purified protein [2] = substrate: OC[C@H]1O[C@@](CO)(O[C@H]2O[C@H](CO)[C@@H](O)[C@H](O)[C@H]2O)[C@@H](O)[C@@H]1O; type: biochemical, Culex quinquefasciatus
purified protein [3] = substrate: OC[C@H]1O[C@@](CO)(O[C@H]2O[C@H](CO)[C@@H](O)[C@H](O)[C@H]2O)[C@@H](O)[C@@H]1O; type: biochemical, Anopheles gambiae

B1: AeGluc (Aedes aegypti) (protein)
chain: LDWWEHGNFYQVYPRSFKDSDGDGIGDLDGVTEKLKYLKDIGMDGVWLSPIFSSPMADFGYDISNFREIQTEYGDLDAFQRLSDKCKQLGLHLILDFVPNHTSDQHEYFKKSVQKDETYKDFYVWHPGVHGPNNTKVPPSNWISVFRGSSWEWNEERQEFYLHQFLKEQPDLNYRNPAVVEEMKNVLRYWLDRGVSGFRIDAVPYLFESDIIDGRYRNEPESRTTDDPENPAYLVHTQTMDQPETYDMIYQWRAVLDEYSKTDNRTRIMMTEGYTSLPKIIEFFGNATANGAQIPFNFEVISNVKKNSTGADFATYVKRWLDAKPANRRSNWVLGNHDNNRLGSRLGENKIDLYNIALQTLPDIAVTYYGEEIGMLDQWIPWNETVDPAACRSDEASYSAYSRDPARTPMQWDSGKNAGFSKAAKTWLPVADNYKTLNVKIQDRARKSHLKIFKKLTKYRKRQILTEGDIDIKVSGENLLVYKRKVDKVGYVVVALNFGTEPVALGLSSLFDRADQRMQVVVSSNRVSTPDNVWVDVDNYVLIGESGIVLQYLWGKNPIVS
- Km (purified protein [1]): 47.6 ± 16.3 mM
- Vmax (purified protein [1]): 740 µM/min
- kcat (purified protein [1]): 805 ± 66.7 s⁻¹
- kcat/Km (purified protein [1]): 16900 ± 1380 M⁻¹ s⁻¹

B2: CxGluc (Culex quinquefasciatus) (protein)
chain: LQWWEHGNFYQVYPRSFKDSDGNGIGDLDGVTEKLQYLKDVGMDGIWLSPIFASPMADFGYDISDFYNIQGEYGDLAAFERLSAKCKELGLRLILDFVPNHTSNQHEYFKKSVQKEDPYTNYYVWHPGVTNEDGTKSPPSNWISVFRGSAWEWNEDRQEYYLHQFLKEQPDLNYRDPALVEEMKNVLKFWLNKGVSGFRIDAVPYLFESVEVENRYVDEPLSRATDDAENPAYLIHNQTMDQPETYDMIYQWRAVLDEFTAKDNQTRIMMTEGYTSIPNVMKFFGEGEQNGAQIPFNFQMISNLRKTSTAADFARYANLWLDNLPAGRRSNWVLGNHDNNRIGSRLGEAKIDLYNIALQTLPDIAVTYYGEEIGMVDQPIPFNETVDPAGLRAGPDDYTLYSRDPARTPMQWNSDKNAGFSSADKTWLPVATNYKQLNVKAQDAAQKSHLKLFKRLTTYRKRQILTHGDLDLRTTDSNLVLYKRKVDKVGYVVVVLNFSDEPQSLAAIKQQFPGADDRLQVVASSKLVTIKDNKWINVADTELPGESAIVLQKLWGPNPVVVYEA
- Km (purified protein [2]): 40.1 ± 15.1 mM
- Vmax (purified protein [2]): 690 µM/min
- kcat (purified protein [2]): 750 ± 75 s⁻¹
- kcat/Km (purified protein [2]): 18700 ± 1850 M⁻¹ s⁻¹

B3: AnGluc (Anopheles gambiae) (protein)
chain: HRPLPIRKAHKFDWWERGNFYQIYPRSFKDSDGDGIGDLKGITQTIDYLKTIGIDGVWLSPIFKSPMNDFGYDISDFYAIQEEYGTMEDFEELAAKCASIGLKLILDFVPNHSSDEHEHFRLSEEGIEPYKDYYIWHSGVLDANGTRHPPSNWISVFRGSAWQWSDKRQQYYLHQFQKKQPDLNYRNPALVEEMKNVMRFWLNKGIAGFRIDALPYLFESEEVDGHYRDEPLSGQATDDPDNPAYLTHTETKDQPETYDMVHQWRQVVDEYTARDNFTRIILTEAYTAVQNMTRFYGTPAAPGAQIPFNFQLITLLTVNSTGRDFVNAVQSWTRAMPSGAIANWVLGNHDNSRIASRLGVARADLYNIALQTLPGIAVTYYGEEIAMVDQWISWNDTIDPAACNADPATYELYSRDPVRTPFQWSNGTNAGFSNASRTWLPVADGYRELNVAAQLAAPRSHLKTFMQLTAYRKRRLLAEGNFVLRTVGRDLVMYKRSVPGVGYVVVALNFGPEPATLPVASQFPGTGEHWLKVIASSLQAQPQAGTWINTRLYKLAPDSGIVLERLTGRNDLMT
- Km (purified protein [3]): 20.4 ± 7.4 mM
- Vmax (purified protein [3]): 740 µM/min
- kcat (purified protein [3]): 815 ± 60 s⁻¹
- kcat/Km (purified protein [3]): 40000 ± 2920 M⁻¹ s⁻¹
